{
  "source": "patent US20260184778A1",
  "about": "(REGENECORE BIOTECH, published 2026)",
  "test_in_all_cases": "cell-based or functional assay",
  "key": {"IL-5": {"molecular_target": "IL-5 (human, UniProt P05113 20-134)", "sequence (P05113 20-134 limits assumed)": "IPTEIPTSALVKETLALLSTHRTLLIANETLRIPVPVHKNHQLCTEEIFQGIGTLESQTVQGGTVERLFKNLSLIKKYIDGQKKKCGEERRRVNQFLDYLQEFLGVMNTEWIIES"}, "IL-4Rα [1]": {"molecular_target": "T1, IL-4Rα (human, UniProt P24394 26-232, limits assumed)"}, "IL-4Rα [2]": {"molecular_target": "T1, IL-4Rα", "remark": "listed apart in the source"}},
  "data": [
    {"molecule": "hIgG (antibody)", "values": [
      {"measurement": "EC50 (nM), neutralizing IL-5-induced TF-1 cell proliferation (control)", "setting": "IL-5", "value": 0.108, "unit": "nM"}
    ]},
    {"molecule": "reslizumab (Tab made by the applicant) (antibody, V domains shown) VH: EVQLVESGGGLVQPGGSLRLSCAVSGLSLTSNSVNWIRQAPGKGLEWVGLIWSNGDTDYNSAIKSRFTISRDTSKSTVYLQMNSLRAEDTAVYYCAREYYGYFDYWGQGTLVTVSS VL: DIQMTQSPSSLSASVGDRVTITCLASEGISSYLAWYQQKPGKAPKLLIYGANSLQTGVPSRFSGSGSATDYTLTISSLQPEDFATYYCQQSYKFPNTFGQGTKVEVK", "values": [
      {"measurement": "EC50 (nM), neutralizing IL-5-induced TF-1 cell proliferation", "setting": "IL-5", "value": 0.122, "unit": "nM"}
    ]},
    {"molecule": "dupilumab (Tab made by the applicant) (antibody, V domains shown) VH: EVQLVESGGGLEQPGGSLRLSCAGSGFTFRDYAMTWVRQAPGKGLEWVSSISGSGGNTYYADSVKGRFTISRDNSKNTLYLQMNSLRAEDTAVYYCAKDRLSITIRPRYYGLDVWGQGTTVTVSS VL: DIVMTQSPLSLPVTPGEPASISCRSSQSLLYSIGYNYLDWYLQKSGQSPQLLIYLGSNRASGVPDRFSGSGSGTDFTLKISRVEAEDVGFYYCMQALQTPYTFGQGTKLEIKR", "values": [
      {"measurement": "EC50(nM), neutralizing IL-13-induced TF-1 proliferation", "setting": "IL-4Rα [1]", "value": 0.178, "unit": "nM"},
      {"measurement": "EC50 (nM), neutralizing IL-4-induced TF-1 proliferation", "setting": "IL-4Rα [2]", "value": 0.13, "unit": "nM"}
    ]}
  ]
}
